{
  "source": "paper PMC9396398",
  "about": "“Crystal structure of Ankyrin-G in complex with a fragment of Neurofascin reveals binding mechanisms required for integrity of the axon initial segment” (The Journal of Biological Chemistry, 2022)",
  "parents": {"B1": {"name": "Nfasc 1198 to 1214 WT [not stated] / AnkG ANK repeats (residues 38-855, R1-24) [not stated] (parent complex)", "chain 1": "GEGQFNEDGSFIGQYTV", "chain 2": "KSDANASYLRAARAGHLEKALDYIKNGVDVNICNQNGLNALHLASKEGHVEVVSELLQREANVDAATKKGNTALHIASLAGQAEVVKVLVTNGANVNAQSQNGFTPLYMAAQENHLEVVRFLLDNGASQSLATEDGFTPLAVALQQGHDQVVSLLLENDTKGKVRLPALHIAARKDDTKAAALLLQNDTNADIESKMVVNRATESGFTPLHIAAHYGNINVATLLLNRAAAVDFTARNDITPLHVASKRGNANMVKLLLDRGAKIDAKTRDGLTPLHCGARSGHEQVVEMLLDRAAPILSKTKNGLSPLHMATQGDHLNCVQLLLQHNVPVDDVTNDYLTALHVAAHCGHYKVAKVLLDKKANPNAKALNGFTPLHIACKKNRIRVMELLLKHGASIQAVTESGLTPIHVAAFMGHVNIVSQLMHHGASPNTTNVRGETALHMAARSGQAEVVRYLVQDGAQVEAKAKDDQTPLHISARLGKADIVQQLLQQGASPNAATTSGYTPLHLSAREGHEDVAAFLLDHGASLSITTKKGFTPLHVAAKYGKLEVASLLLQKSASPDAAGKSGLTPLHVAAHYDNQKVALLLLDQGASPHAAAKNGYTPLHIAAKKNQMDIATSLLEYGADANAVTRQGIASVHLAAQEGHVDMVSLLLSRNANVNLSNKSGLTPLHLAAQEDRVNVAEVLVNQGAHVDAQTKMGYTPLHVGCHYGNIKIVNFLLQHSAKVNAKTKNGYTPLHQAAQQGHTHIINVLLQNNASPNELTVNGNTALAIARRLGYISVVDTLKVVTEEIMTTTTITEKHKMNVPETMNEVLDMS"}, "B2": {"name": "Nfasc ankyrin-binding domain (ABD, residues 1187-1214) [not stated] / AnkG ANK repeats (residues 38-855, R1-24) [not stated] (parent complex)", "chain 1": "SDDSLVDYGEGGEGQFNEDGSFIGQYTV", "chain 2": "B1 chain 2"}},
  "data": [
    {"variants_of": "B1", "assay": "ITC; parent: 340 nM", "units": {"Kd": "nM"}, "values": [
      {"variant": "chain 1 GEGQFNEDGSQIGQYTV", "Kd": 1400},
      {"variant": "chain 1 GEGQFNEDGSFIGQYAV", "Kd": 460},
      {"variant": "chain 1 GEGQFNEDGSFIGQETV", "Kd": 3200},
      {"variant": "chain 1 GEGQQNEDGSFIGQYTV", "Kd": 7100},
      {"variant": "chain 1 GEGQFNEDGSFQGQYTV", "Kd": 1000},
      {"variant": "chain 1 GEGQFAEDGSFIGQYTV", "Kd": 260},
      {"variant": "chain 1 GEGQFNADGSFIGQYTV", "Kd": 9200},
      {"variant": "chain 1 GEGQFNEKGSFIGQYTV", "Kd": 7700},
      {"variant": "chain 1 GEGQFNEAGSFIGQYTV", "Kd": 1300}
    ]},
    {"variants_of": "B2", "assay": "ITC; parent: 220 nM", "units": {"Kd": "nM"}, "values": [
      {"variant": "chain 2 R281A, chain 2 Q314A", "Kd": 670},
      {"variant": "chain 2 L306Q, chain 2 L339Q", "Kd": 2000},
      {"variant": "chain 2 H347A", "Kd": 1700},
      {"variant": "chain 2 V245Q", "Kd": 1300},
      {"variant": "chain 2 M311Q", "Kd": 1800},
      {"variant": "chain 2 I240Q, chain 2 L273Q", "Kd": 3000},
      {"variant": "chain 2 T302A, chain 2 N304A", "Kd": 2500}
    ]}
  ]
}
